From PMC13276077

Assays:
[1] = molecular target: MeCP2 full-length, e2 isoform;histone octamer (Homo sapiens;, UniProt P51608;P0C0S8;P62807;P68431;P62805 1-486;2-130;2-126;2-136;2-103, |H2B T115C;H3.1 C96S;C110A); experiment: EMSA; 20 mM HEPES pH 7.5, 75 mM NaCl, 125 mM KCl, 50 uM EDTA, 2.5 mM beta-mercaptoethanol, 5% glycerol, BSA, 1.58 uM 47 bp competitor DNA (nucleosome assays); absent w
[2] = molecular target: MeCP2 full-length, e2 isoform (Homo sapiens, UniProt P51608 1-486); experiment: EMSA; 20 mM HEPES pH 7.5, 75 mM NaCl, 125 mM KCl, 50 uM EDTA, 2.5 mM beta-mercaptoethanol, 5% glycerol, BSA, 1.58 uM 47 bp competitor DNA (nucleosome assays; absent with free DNA), room temperature 30 min; conditions: protein: recombinant, tags: none

B1: N601-15 nucleosome 81 meCpA (nucleosome)
DNA 1: ATGGAACACATTGCACAGGATGTATATATCTGACACGTGCCTGGAGACTAGGGAGTAATCCCCTTGGCGGTTAAAACGCGGGGGACAGCGCGTACGTGCGTTTAAGCGGTGCTAGAGCTGTCTACGACCAATTGAGCGGCCTCGGCACCGGGATTCTCCA
DNA 2: TGGAGAATCCCGGTGCCGAGGCCGCTCAATTGGTCGTAGACAGCTCTAGCACCGCTTAAACGCACGTACGCGCTGTCCCCCGCGTTTTAACCGCCAAGGGGATTACTCCCTAGTCTCCAGGCACGTGTCAGATATATACATCCTGTGCAATGTGTTCCAT
modifications: asymmetric meCpA at 81
- Kd [1]: 357 nM

B2: N601-15 nucleosome (single 15 bp linker) (nucleosome)
DNA 1: ATGGAACACATTGCACAGGATGTATATATCTGACACGTGCCTGGAGACTAGGGAGTAATCCCCTTGGCGGTTAAAACGCGGGGGACAGCGCGTACGTGCGTTTAAGCGGTGCTAGAGCTGTCTACGACCAATTGAGCGGCCTCGGCACCGGGATTCTCCA
DNA 2: TGGAGAATCCCGGTGCCGAGGCCGCTCAATTGGTCGTAGACAGCTCTAGCACCGCTTAAACGCACGTACGCGCTGTCCCCCGCGTTTTAACCGCCAAGGGGATTACTCCCTAGTCTCCAGGCACGTGTCAGATATATACATCCTGTGCAATGTGTTCCAT
- Kd [1]: 419 nM

B3: 15-N601-15 free DNA -1 meCpG (dsDNA)
DNA 1: ATGGAACACATTGCACAGGATGTATATATCTGACACGTGCCTGGAGACTAGGGAGTAATCCCCTTGGCGGTTAAAACGCGGGGGACAGCGCGTACGTGCGTTTAAGCGGTGCTAGAGCTGTCTACGACCAATTGAGCGGCCTCGGCACCGGGATTCTCCAGGGCGGCCGCGTATT
DNA 2: AATACGCGGCCGCCCTGGAGAATCCCGGTGCCGAGGCCGCTCAATTGGTCGTAGACAGCTCTAGCACCGCTTAAACGCACGTACGCGCTGTCCCCCGCGTTTTAACCGCCAAGGGGATTACTCCCTAGTCTCCAGGCACGTGTCAGATATATACATCCTGTGCAATGTGTTCCAT
modifications: meCpG at -1
- Kd ([2]; label: 5' 6-FAM, blunt): 45.3 ± 2 nM

B4: 15-N601-15 free DNA unmethylated (dsDNA)
DNA 1: ATGGAACACATTGCACAGGATGTATATATCTGACACGTGCCTGGAGACTAGGGAGTAATCCCCTTGGCGGTTAAAACGCGGGGGACAGCGCGTACGTGCGTTTAAGCGGTGCTAGAGCTGTCTACGACCAATTGAGCGGCCTCGGCACCGGGATTCTCCAGGGCGGCCGCGTATT
DNA 2: AATACGCGGCCGCCCTGGAGAATCCCGGTGCCGAGGCCGCTCAATTGGTCGTAGACAGCTCTAGCACCGCTTAAACGCACGTACGCGCTGTCCCCCGCGTTTTAACCGCCAAGGGGATTACTCCCTAGTCTCCAGGCACGTGTCAGATATATACATCCTGTGCAATGTGTTCCAT
- Kd ([2]; label: 5' 6-FAM, blunt): 75.9 ± 4.2 nM

B5: 15-N601-15 free DNA -61 meCpG (dsDNA)
DNA 1: ATGGAACACATTGCACAGGATGTATATATCTGACACGTGCCTGGAGACTAGGGAGTAATCCCCTTGGCGGTTAAAACGCGGGGGACAGCGCGTACGTGCGTTTAAGCGGTGCTAGAGCTGTCTACGACCAATTGAGCGGCCTCGGCACCGGGATTCTCCAGGGCGGCCGCGTATT
DNA 2: AATACGCGGCCGCCCTGGAGAATCCCGGTGCCGAGGCCGCTCAATTGGTCGTAGACAGCTCTAGCACCGCTTAAACGCACGTACGCGCTGTCCCCCGCGTTTTAACCGCCAAGGGGATTACTCCCTAGTCTCCAGGCACGTGTCAGATATATACATCCTGTGCAATGTGTTCCAT
modifications: meCpG at -61
- Kd ([2]; label: 5' 6-FAM, blunt): 50.5 ± 1.9 nM

B6: N601 nucleosome core particle -61 meCpG (nucleosome)
DNA 1: CAGGATGTATATATCTGACACGTGCCTGGAGACTAGGGAGTAATCCCCTTGGCGGTTAAAACGCGGGGGACAGCGCGTACGTGCGTTTAAGCGGTGCTAGAGCTGTCTACGACCAATTGAGCGGCCTCGGCACCGGGATTCTCCA
DNA 2: TGGAGAATCCCGGTGCCGAGGCCGCTCAATTGGTCGTAGACAGCTCTAGCACCGCTTAAACGCACGTACGCGCTGTCCCCCGCGTTTTAACCGCCAAGGGGATTACTCCCTAGTCTCCAGGCACGTGTCAGATATATACATCCTG
modifications: meCpG at -61
- binding result [1]: no binding

B7: 16-N603-30 +91 CG nucleosome 91 meCpG (nucleosome)
DNA 1: GAGCCACAAAACCGGCGACGCTCACGGGTGCCCAGTTCGCGCGCCCACCTACCGTGTGAAGTCGTCACTCGGGCTTCTAAGTACGCTTAGCGCACGGTAGAGCGCAATCCAAGGCTAACCACCGTGCATCGATGTTGAAAGAGGCCCTCCGTCCTTATTACTTCAAGTCCCTGGGGTACCCGTTTCACTGCCA
DNA 2: TGGCAGTGAAACGGGTACCCCAGGGACTTGAAGTAATAAGGACGGAGGGCCTCTTTCAACATCGATGCACGGTGGTTAGCCTTGGATTGCGCTCTACCGTGCGCTAAGCGTACTTAGAAGCCCGAGTGACGACTTCACACGGTAGGTGGGCGCGCGAACTGGGCACCCGTGAGCGTCGCCGGTTTTGTGGCTC
modifications: meCpG at 91
- Kd [1]: 71.3 nM

B8: 16-N603-30 +81 CG free DNA 81 meCpG (dsDNA)
DNA 1: GAGCCACAAAATCACCGACGCCCGGGGGTGCCCAGTTCGCGCGCCCACCTACCGTGTGAAGTCGTCACTCGGGCTTCTAAGTACGCTTAGCGCACGGTAGAGCGCAATCCAAGGCTAACCACCGTGCATCGATGTTGAAAGAGGCCCTCCGTCCTTATTACTTCAAGTCCCTGGGGTACCCGTTTCACTGCCA
DNA 2: TGGCAGTGAAACGGGTACCCCAGGGACTTGAAGTAATAAGGACGGAGGGCCTCTTTCAACATCGATGCACGGTGGTTAGCCTTGGATTGCGCTCTACCGTGCGCTAAGCGTACTTAGAAGCCCGAGTGACGACTTCACACGGTAGGTGGGCGCGCGAACTGGGCACCCCCGGGCGTCGGTGATTTTGTGGCTC
modifications: meCpG at 81
- Kd ([2]; blunt): 23.8 ± 1.2 nM

B9: 16-N603-30 free DNA 91 meCpA (dsDNA)
DNA 1: GAGCCACAAAATCACCGACGCTCACGGGTGCCCAGTTCGCGCGCCCACCTACCGTGTGAAGTCGTCACTCGGGCTTCTAAGTACGCTTAGCGCACGGTAGAGCGCAATCCAAGGCTAACCACCGTGCATCGATGTTGAAAGAGGCCCTCCGTCCTTATTACTTCAAGTCCCTGGGGTACCCGTTTCACTGCCA
DNA 2: TGGCAGTGAAACGGGTACCCCAGGGACTTGAAGTAATAAGGACGGAGGGCCTCTTTCAACATCGATGCACGGTGGTTAGCCTTGGATTGCGCTCTACCGTGCGCTAAGCGTACTTAGAAGCCCGAGTGACGACTTCACACGGTAGGTGGGCGCGCGAACTGGGCACCCGTGAGCGTCGGTGATTTTGTGGCTC
modifications: asymmetric meCpA at 91
- Kd ([2]; blunt): 27.8 ± 1.9 nM

B10: 16-N603-30 free DNA 81 meCpA (dsDNA)
DNA 1: GAGCCACAAAATCACCGACGCTCACGGGTGCCCAGTTCGCGCGCCCACCTACCGTGTGAAGTCGTCACTCGGGCTTCTAAGTACGCTTAGCGCACGGTAGAGCGCAATCCAAGGCTAACCACCGTGCATCGATGTTGAAAGAGGCCCTCCGTCCTTATTACTTCAAGTCCCTGGGGTACCCGTTTCACTGCCA
DNA 2: TGGCAGTGAAACGGGTACCCCAGGGACTTGAAGTAATAAGGACGGAGGGCCTCTTTCAACATCGATGCACGGTGGTTAGCCTTGGATTGCGCTCTACCGTGCGCTAAGCGTACTTAGAAGCCCGAGTGACGACTTCACACGGTAGGTGGGCGCGCGAACTGGGCACCCGTGAGCGTCGGTGATTTTGTGGCTC
modifications: asymmetric meCpA at 81
- Kd ([2]; label: 5' 6-FAM): 27.1 ± 1.8 nM

B11: 16-N603-30 +91 CG free DNA 91 meCpG (dsDNA)
DNA 1: GAGCCACAAAACCGGCGACGCTCACGGGTGCCCAGTTCGCGCGCCCACCTACCGTGTGAAGTCGTCACTCGGGCTTCTAAGTACGCTTAGCGCACGGTAGAGCGCAATCCAAGGCTAACCACCGTGCATCGATGTTGAAAGAGGCCCTCCGTCCTTATTACTTCAAGTCCCTGGGGTACCCGTTTCACTGCCA
DNA 2: TGGCAGTGAAACGGGTACCCCAGGGACTTGAAGTAATAAGGACGGAGGGCCTCTTTCAACATCGATGCACGGTGGTTAGCCTTGGATTGCGCTCTACCGTGCGCTAAGCGTACTTAGAAGCCCGAGTGACGACTTCACACGGTAGGTGGGCGCGCGAACTGGGCACCCGTGAGCGTCGCCGGTTTTGTGGCTC
modifications: meCpG at 91
- Kd ([2]; blunt): 24.6 ± 1.7 nM

B12: 16-N603-30 free DNA unmethylated (dsDNA)
DNA 1: GAGCCACAAAATCACCGACGCTCACGGGTGCCCAGTTCGCGCGCCCACCTACCGTGTGAAGTCGTCACTCGGGCTTCTAAGTACGCTTAGCGCACGGTAGAGCGCAATCCAAGGCTAACCACCGTGCATCGATGTTGAAAGAGGCCCTCCGTCCTTATTACTTCAAGTCCCTGGGGTACCCGTTTCACTGCCA
DNA 2: TGGCAGTGAAACGGGTACCCCAGGGACTTGAAGTAATAAGGACGGAGGGCCTCTTTCAACATCGATGCACGGTGGTTAGCCTTGGATTGCGCTCTACCGTGCGCTAAGCGTACTTAGAAGCCCGAGTGACGACTTCACACGGTAGGTGGGCGCGCGAACTGGGCACCCGTGAGCGTCGGTGATTTTGTGGCTC
- Kd ([2]; label: 5' 6-FAM): 46.2 ± 2.8 nM

B13: 16-N603-30 +81 CG nucleosome 81 meCpG (nucleosome)
DNA 1: GAGCCACAAAATCACCGACGCCCGGGGGTGCCCAGTTCGCGCGCCCACCTACCGTGTGAAGTCGTCACTCGGGCTTCTAAGTACGCTTAGCGCACGGTAGAGCGCAATCCAAGGCTAACCACCGTGCATCGATGTTGAAAGAGGCCCTCCGTCCTTATTACTTCAAGTCCCTGGGGTACCCGTTTCACTGCCA
DNA 2: TGGCAGTGAAACGGGTACCCCAGGGACTTGAAGTAATAAGGACGGAGGGCCTCTTTCAACATCGATGCACGGTGGTTAGCCTTGGATTGCGCTCTACCGTGCGCTAAGCGTACTTAGAAGCCCGAGTGACGACTTCACACGGTAGGTGGGCGCGCGAACTGGGCACCCCCGGGCGTCGGTGATTTTGTGGCTC
modifications: meCpG at 81
- Kd [1]: 65.5 nM
